# Results reported in patent US20260199502A1, “BINDING MOLECULE” (priority 2022, published 2026).
# Legend:
# [1] = target: panel of 14 peptides (UU0024, UU0070-UU0078, UU0080-UU0083) comprising the tag moiety; test: SPR affinity of captured scFv against a peptide panel (Example 3); assay type: binding; settings: SPR single cycle kinetics, peptides 0.16 nM to 100 nM; to most target peptides in the tested panel
# Description: Affinity measurements of the IBIIICI mouse scFv and IBIIICI CDR graft scFv variants obtained as described in Examples 1-2 were performed by SPR using a Biacore T200 instrument (GE Healthcare) and single cycle kinetics. Anti-FLAG M2 antibody (Sigma-Aldrich) was immobilized onto a Series S CM5 chip by primary amine coupling using NHS-EDC chemistry according to the manufacturer's instruction, allowing capture of the respective scFv through the FLAG tags provided by the expression vector. A 5-fold dilution series comprising of five concentrations (0.16 nM to 100 nM) of different peptides (Table 2) was sequentially injected over the flow cells, allowing binding to the captured scFv. Following a dissociation phase, regeneration of the surface was accomplished under acidic conditions using 10 mM glycine-HCl at pH 2.1. By subtracting the response curve of a surface having an anti-FLAG antibody immobilized thereto (the reference surface), response unit sensorgrams for all peptides were obtained. Data was analyzed using BIAeval v.3.1 (GE Healthcare).
# [2] = Melting temperature (Tm) determination by nanoDSF; assay type: physicochemical; settings: inflection point #1, 1.0 mg/ml in PBS, 20-95° C. at 1° C./min
# Description: In order to evaluate the stability of the purified scFv variants, the melting temperatures were determined by nanoDSF using a Prometheus NT.48 instrument (NanoTemper Inc). The nanoDSF technology measures the intrinsic fluorescence of a protein while it is being subjected to thermal denaturation, thereby characterizing the unfolding of the protein under native conditions.
# The six purified IBIIICI CDR graft scFv variants were diluted to 1.0 mg/ml in PBS and loaded into a high sensitivity capillary (NanoTemper, #PR-C006) through capillary force. A melting temperature ramp was set to between 20° C. and 95° C., with heating at 1° C./min. Tryptophan emission was measured at 330 nm and 350 nm, and the calculated ratio was plotted against temperature to obtain melting curves for each variant. Tm values were deduced using the software PR ThermoControl (NanoTemper Inc).
Molecule,binding affinity [1],Tm [2] [°C],Tm ([2]; listed as IBIIICI CDR graft scFv SG) [°C],Tm ([2]; listed as IBIIICI CDR graft scFv NA) [°C]
"IBIIICI mouse scFv: known ancestral mouse scFv binding the peptide tag moiety, SEQ ID NO:25 (protein, listed as Mus musculus) scFv: EVRLLQSGAALVRPGASVKLSCTASGFNIKDFNIHWVKQRPEQGLEWIGRIDPENGDAEYVPKFQVRATMTTDTSSNTVYLHLSSLTSGDTAVYYCTTGSYDLDVEYWGQGTTLTVSSGGGGSGGGGSGGGGSGGGGSELQMTQSPSSLSASLGDTVTITCHASQNINVWLSWYQQRPGNIPKLLIYKASTLHTGVPSRFRGSGSGTGFTLTISSLQPEDIATYYCQQGQSYPLTFGAGTKLELK",low nanomolar,–,–,–
"IBIIICI CDR graft scFv variant NG (wt): original humanized IBIIICI CDR graft scFv, SEQ ID NO:54, NG at positions 62-63 of VH (protein) scFv: QVQLVQSGAEVKKPGASVKVSCKASGFNIKDFNIHWVRQAPGQGLEWIGRIDPENGDAEYVPKFQGRVTMTRDTSTSTVYMELSSLRSEDTAVYYCTTGSYDLDVEYWGQGTLVTVSSGGGGSGGGGSGGGGSGGGGSDIQMTQSPSSLSASVGDRVTITCHASQNINVWLSWYQQKPGKAPKLLIYKASTLHTGVPSRFSGSGSGTDFTLTISSLQPEDFATYYCQQGQSYPLTFGQGTKLEIK",low nanomolar,63.4,–,–
"IBIIICI CDR graft scFv variant SG: humanized scFv point mutated variant, SEQ ID NO:49 (protein) scFv: QVQLVQSGAEVKKPGASVKVSCKASGFNIKDFNIHWVRQAPGQGLEWIGRIDPESGDAEYVPKFQGRVTMTRDTSTSTVYMELSSLRSEDTAVYYCTTGSYDLDVEYWGQGTLVTVSSGGGGSGGGGSGGGGSGGGGSDIQMTQSPSSLSASVGDRVTITCHASQNINVWLSWYQQKPGKAPKLLIYKASTLHTGVPSRFSGSGSGTDFTLTISSLQPEDFATYYCQQGQSYPLTFGQGTKLEIK",–,64.3,64,–
"IBIIICI CDR graft scFv variant NA: humanized scFv point mutated variant, SEQ ID NO:53 (protein) scFv: QVQLVQSGAEVKKPGASVKVSCKASGFNIKDFNIHWVRQAPGQGLEWIGRIDPENADAEYVPKFQGRVTMTRDTSTSTVYMELSSLRSEDTAVYYCTTGSYDLDVEYWGQGTLVTVSSGGGGSGGGGSGGGGSGGGGSDIQMTQSPSSLSASVGDRVTITCHASQNINVWLSWYQQKPGKAPKLLIYKASTLHTGVPSRFSGSGSGTDFTLTISSLQPEDFATYYCQQGQSYPLTFGQGTKLEIK",–,60.8,–,61
"IBIIICI CDR graft scFv variant DG: humanized scFv point mutated variant, SEQ ID NO:52 (protein) scFv: QVQLVQSGAEVKKPGASVKVSCKASGFNIKDFNIHWVRQAPGQGLEWIGRIDPEDGDAEYVPKFQGRVTMTRDTSTSTVYMELSSLRSEDTAVYYCTTGSYDLDVEYWGQGTLVTVSSGGGGSGGGGSGGGGSGGGGSDIQMTQSPSSLSASVGDRVTITCHASQNINVWLSWYQQKPGKAPKLLIYKASTLHTGVPSRFSGSGSGTDFTLTISSLQPEDFATYYCQQGQSYPLTFGQGTKLEIK",–,62.4,–,–
"IBIIICI CDR graft scFv variant GG: humanized scFv point mutated variant, SEQ ID NO:50 (protein) scFv: QVQLVQSGAEVKKPGASVKVSCKASGFNIKDFNIHWVRQAPGQGLEWIGRIDPEGGDAEYVPKFQGRVTMTRDTSTSTVYMELSSLRSEDTAVYYCTTGSYDLDVEYWGQGTLVTVSSGGGGSGGGGSGGGGSGGGGSDIQMTQSPSSLSASVGDRVTITCHASQNINVWLSWYQQKPGKAPKLLIYKASTLHTGVPSRFSGSGSGTDFTLTISSLQPEDFATYYCQQGQSYPLTFGQGTKLEIK",–,62.6,–,–
"IBIIICI CDR graft scFv variant QG: humanized scFv point mutated variant, SEQ ID NO:51 (protein) scFv: QVQLVQSGAEVKKPGASVKVSCKASGFNIKDFNIHWVRQAPGQGLEWIGRIDPEQGDAEYVPKFQGRVTMTRDTSTSTVYMELSSLRSEDTAVYYCTTGSYDLDVEYWGQGTLVTVSSGGGGSGGGGSGGGGSGGGGSDIQMTQSPSSLSASVGDRVTITCHASQNINVWLSWYQQKPGKAPKLLIYKASTLHTGVPSRFSGSGSGTDFTLTISSLQPEDFATYYCQQGQSYPLTFGQGTKLEIK",–,62.2,–,–
